Here are results for two variants from IntAct's records for PubMed 23756461.

The labels stand for the following.
B1: Cell shape-determining protein MreB (Escherichia coli (strain K12)), P0A9X4 (parent)
chain: MLKKFRGMFSNDLSIDLGTANTLIYVKGQGIVLNEPSVVAIRQDRAGSPKSVAAVGHDAKQMLGRTPGNIAAIRPMKDGVIADFFVTEKMLQHFIKQVHSNSFMRPSPRVLVCVPVGATQVERRAIRESAQGAGAREVFLIEEPMAAAIGAGLPVSEATGSMVVDIGGGTTEVAVISLNGVVYSSSVRIGGDRFDEAIINYVRRNYGSLIGEATAERIKHEIGSAYPGDEVREIEVRGRNLAEGVPRGFTLNSNEILEALQEPLTGIVSAVMVALEQCPPELASDISERGMVLTGGGALLRNLDRLLMEETGIPVVVAEDPLTCVARGGGKALEMIDMHGGDLFSEE
B2: Cell division protein FtsZ (Escherichia coli (strain K12)), P0A9A6 (parent)
chain: MFEPMELTNDAVIKVIGVGGGGGNAVEHMVRERIEGVEFFAVNTDAQALRKTAVGQTIQIGSGITKGLGAGANPEVGRNAADEDRDALRAALEGADMVFIAAGMGGGTGTGAAPVVAEVAKDLGILTVAVVTKPFNFEGKKRMAFAEQGITELSKHVDSLITIPNDKLLKVLGRGISLLDAFGAANDVLKGAVQGIAELITRPGLMNVDFADVRTVMSEMGYAMMGSGVASGEDRAEEAAEMAISSPLLEDIDLSGARGVLVNITAGFDLRLDEFETVGNTIRAFASDNATVVIGTSLDPDMNDELRVTVVATGIGMDKRPEITLVTNKQVQQPVMDRYQQHGMAPLTQEQKPVAKVVNDNAPQTAKEPDYLDIPAFLRKQAD

The variants in the first assay derive from B1. The note with it: with ftsz_ecoli ftsZ.
Take D285A: the “effect of a mutation on the interaction” value is reported as “disrupting interaction”.

The next assay covers variants of B2. The conditions noted are these: with mreb_ecoli mreB.
MFEPMELTNDAVIKVIGVGGGGGNAVEHMVRERIEGVEFFAVNTDAQALRKTAVGQTIQIGSGITKGLGAGANPEVGRNAADEDRDALRAALEGADMVFIAAGMGGGTGTGAAPVVAEVAKDLGILTVAVVTKPFNFEGKKRMAFAEQGITELSKHVDSLITIPNDKLLKVLGRGISLLDAFGAANDVLKGAVQGIAELITRQGLMNVDFADVRTVMSEMGYAMMGSGVASGEDRAEEAAEMAISSPLLEDIDLSGARGVLVNITAGFDLRLDEFETVGNTIRAFASDNATVVIGTSLDPDMNDELRVTVVATGIGMDKRPEITLVTNKQVQQPVMDRYQQHGMAPLTQEQKPVAKVVNDNAPQTAKEPDYLDIPAFLRKQAD [P203Q]: the “effect of a mutation on the interaction” value was “disrupting interaction”.
